The target in the assay is T1, human GPC-3 on cells (SK Hep1:hGPC-3 transfectants; HepG2) (human, UniProt P51654 25-554).
T1 construct: whole, on cells; The same molecule is used for the transfected SK-Hep1 cells and the GPC-3 positive HepG2 cells; The cell line is named under assay; also called Glypican-3
Put plainly: confocal microscopy, cell surface staining of SK Hep1:hGPC-3 cells. The method, then: Incubation of SK Hep1:hGPC-3 and SK Hep1:EV (empty vector control) and HepG2 cells with hNGAL muteins (SEQ ID NOs: 1-6) and staining of GPC-3 and bound hNGAL muteins followed by confocal microscopy. Cells (SK Hep1:GPC-3, SK Hep1:EV or HepG2) were grown at 37° in a humidified CO2 incubator for 24 hrs and exposed to hNGAL muteins 1.0 ug/mL, fixed (4% PFA in PBS) and stained with a rabbit anti-lipocalin antibody overnight at 4° C. prior to addition of secondary donkey anti-rabbit AF568 antibody. For nuclei staining, cells were incubated in 300 uL of DAPI solution (1:50000 DAPI in PBS). Slides were viewed using Leica TCS SP5 DNI6000 CS Confocal Microscope (Leica) using the following lasers. […] Results clearly indicate binding of ail hNGAL muteins (SEQ ID NOs: 2-6) to the cell lines expressing GPC-3 (presence of GPC-3 on the surface of the cells was also confirmed by confocal imaging) and lack of binding of such hNGAL muteins to control cell line (SK-Hep1:EV).

T1 sequence (P51654 25-554 limits assumed): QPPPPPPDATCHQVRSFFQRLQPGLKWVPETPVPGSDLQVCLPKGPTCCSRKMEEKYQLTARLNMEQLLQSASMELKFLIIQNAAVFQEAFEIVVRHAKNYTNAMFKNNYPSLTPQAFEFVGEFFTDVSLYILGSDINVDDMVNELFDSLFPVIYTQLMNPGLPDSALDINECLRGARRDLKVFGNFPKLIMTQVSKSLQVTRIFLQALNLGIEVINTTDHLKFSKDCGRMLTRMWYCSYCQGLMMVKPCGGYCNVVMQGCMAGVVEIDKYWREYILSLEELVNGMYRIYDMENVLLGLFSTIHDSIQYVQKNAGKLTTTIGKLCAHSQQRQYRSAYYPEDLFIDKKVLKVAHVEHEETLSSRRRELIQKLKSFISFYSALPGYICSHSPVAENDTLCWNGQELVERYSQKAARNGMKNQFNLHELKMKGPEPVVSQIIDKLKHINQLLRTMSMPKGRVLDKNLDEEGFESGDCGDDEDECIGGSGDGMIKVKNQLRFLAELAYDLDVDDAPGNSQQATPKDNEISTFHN

B1: lipocalin control (SEQ ID NO: 1) (other)
chain: QDSTSDLIPAPPLSKVPLQQNFQDNQFHGKWYVVGLAGNAILREDKDPQKMYATIYELKEDKSYNVTSVLFRKKKCDYWIRTFVPGSQPGEFTLGNIKSYPGLTSYLVRVVSTNYNQHAMVFFKKVSQNREYFKITLYGRTKELTSELKENFIRFSKSLGLPENHIVFPVPIDQCIDG
notes: also called mature human Lipocalin 2; mature hNGAL
As for B1, the binding result was “no binding (tested: 1.0 ug/mL)”.

The values are drawn from patent US20170066807A1 (Pieris, published 2017).
